Drawing on the supplement of paper PMC10567573, this text covers protein stability index for four proteins.

The data set in a line: protein stability index of a GFP-peptide fusion (GPS, HEK-293T) (PSI 1-6); higher = more stable. Conditions: c terminus: native.
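Also: lentivirally expressed fusion library, cells FACS-sorted into six equal-sized GFP/DsRed ratio bins, PSI computed from sequencing read fractions per bin weighted by bin number.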

For the protein CQPISFSGFGAEDDDLGGLGLGPI [POLD2 addI], for the setting “parent: NP_006221.1”, the protein stability index was found to be 2.66.

Take DGWIRVSSDNVADLHEKYSGSTPI [PSMB5 addI]: the protein stability index (parent: NP_002788.1) worked out at 4.5.

EQRNSRWNTVLRAVKAKTHHLEPI [TRPA1 addI]: under “parent: NP_015628.1”, the protein stability index was found to be 4.42.

As to LPALFTDLYSQEITAEEAREALPI [SNF8 addI], the protein stability index (parent: NP_009172.2) was found to be 3.3.
